For three molecules, interaction score results are on record in article PMC10397247.

What all share (assay): two-hybrid library CCmax;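 note: natural log of median RNA to DNA barcode read ratio; higher means stronger binding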
In one test the target is T1, Core_NNNN-es_KKEK.
T1 chain: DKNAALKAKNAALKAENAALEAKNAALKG
The note with it: mean of both orientations.

The next test has as its target T2, 4H317-AA.
T2 chain: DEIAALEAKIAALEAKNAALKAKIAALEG
Particulars: mean of both orientations.

Another test deals with T3, 4H1135-AA.
T3 chain: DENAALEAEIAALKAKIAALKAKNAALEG
The note with it: mean of both orientations.

In a further test the target is T4, 4H1324-AA.
T4 chain: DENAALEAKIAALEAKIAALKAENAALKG
Particulars: mean of both orientations.

Another test has as its target T5, 4H993-AA.
T5 chain: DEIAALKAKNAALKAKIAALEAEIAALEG
The note with it: mean of both orientations.

The next test addresses T6, 4H605-AA.
T6 chain: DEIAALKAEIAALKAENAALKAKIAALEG
The note with it: mean of both orientations.

A further test concerns the target T7, 4H454-AA.
T7 chain: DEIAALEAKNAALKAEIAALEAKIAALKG
Particulars: mean of both orientations.

A further test addresses T8, 4H3844-AA.
T8 chain: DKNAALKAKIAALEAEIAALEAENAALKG
Particulars: mean of both orientations.

Another test deals with T9, 4H122-AA.
T9 chain: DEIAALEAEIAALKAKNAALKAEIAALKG
Particulars: mean of both orientations.

The target in a further test is T10, 4H3655-AA.
T10 chain: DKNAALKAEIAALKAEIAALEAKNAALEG
Particulars: mean of both orientations.

The target of a further test is T11, 4H1352-AA.
T11 chain: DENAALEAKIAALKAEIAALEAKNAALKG
The note with it: mean of both orientations.

In a further test the target is T12, 4H3112-AA.
T12 chain: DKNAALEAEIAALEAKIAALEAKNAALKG
The note with it: mean of both orientations.

Another test concerns the target T13, 4H1153-AA.
T13 chain: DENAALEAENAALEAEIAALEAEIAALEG
Particulars: mean of both orientations.

Another test addresses T14, 4H2729-AA.
T14 chain: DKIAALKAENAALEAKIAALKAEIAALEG
Particulars: mean of both orientations.

A further test deals with T15, 4H429-AA.
T15 chain: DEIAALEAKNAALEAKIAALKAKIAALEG
Particulars: mean of both orientations.

For a further test, the target named is T16, 4H2754-AA.
T16 chain: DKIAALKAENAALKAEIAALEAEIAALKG
The note with it: mean of both orientations.

The next test concerns the target T17, 4H2617-AA.
T17 chain: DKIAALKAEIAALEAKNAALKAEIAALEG
The note with it: mean of both orientations.

The target of a further test is T18, 4H2575-AA.
T18 chain: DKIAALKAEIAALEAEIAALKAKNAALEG
Particulars: mean of both orientations.

The next test concerns the target T19, 4H2277-AA.
T19 chain: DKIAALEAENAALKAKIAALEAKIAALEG

The next test addresses T20, 4H780-AA.
T20 chain: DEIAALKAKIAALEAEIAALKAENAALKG
Particulars: mean of both orientations.

The target in the next test is T21, 4H1867-AA.
T21 chain: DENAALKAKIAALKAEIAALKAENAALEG
Particulars: mean of both orientations.

Another test concerns the target T22, 4H566-AA.
T22 chain: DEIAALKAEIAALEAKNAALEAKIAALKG
Particulars: mean of both orientations.

A further test concerns the target T23, 4H794-AA.
T23 chain: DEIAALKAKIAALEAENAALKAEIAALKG
The note with it: mean of both orientations.

In a further test the target is T24, 4H2190-AA.
T24 chain: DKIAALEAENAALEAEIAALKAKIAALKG
The note with it: mean of both orientations.

The target in a further test is T25, 4H3921-AA.
T25 chain: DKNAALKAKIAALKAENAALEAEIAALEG
Particulars: mean of both orientations.

In a further test the target is T26, 4H1552-AA.
T26 chain: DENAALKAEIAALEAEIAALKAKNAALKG
Particulars: mean of both orientations.

Another test addresses T27, 4H2837-AA.
T27 chain: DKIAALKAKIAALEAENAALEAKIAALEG
The note with it: mean of both orientations.

Another test has as its target T28, 4H2505-AA.
T28 chain: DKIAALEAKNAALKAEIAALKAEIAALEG
Particulars: mean of both orientations.

A further test addresses T29, 4H1636-AA.
T29 chain: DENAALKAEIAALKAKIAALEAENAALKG
The note with it: mean of both orientations.

A further test deals with T30, 4H234-AA.
T30 chain: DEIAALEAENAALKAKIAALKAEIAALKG
The note with it: mean of both orientations.

The target in the next test is T31, 4H906-AA.
T31 chain: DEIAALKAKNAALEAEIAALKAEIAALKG
Particulars: mean of both orientations.

The next test concerns the target T32, 4H2165-AA.
T32 chain: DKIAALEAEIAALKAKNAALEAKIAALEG
The note with it: mean of both orientations.

A further test addresses T33, 4H2078-AA.
T33 chain: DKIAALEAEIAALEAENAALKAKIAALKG
Particulars: mean of both orientations.

The target of the next test is T34, 4H881-AA.
T34 chain: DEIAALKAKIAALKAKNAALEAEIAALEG
Particulars: mean of both orientations.

For another test, the target named is T35, 4H3627-AA.
T35 chain: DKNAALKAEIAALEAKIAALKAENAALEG
Particulars: mean of both orientations.

The next test addresses T36, 4H3343-AA.
T36 chain: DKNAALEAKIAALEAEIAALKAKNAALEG
The note with it: mean of both orientations.

The target of the next test is T37, 4H2944-AA.
T37 chain: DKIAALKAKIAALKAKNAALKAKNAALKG
Particulars: mean of both orientations.

Another test has as its target T38, 4H2393-AA.
T38 chain: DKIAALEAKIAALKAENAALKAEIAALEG
Particulars: mean of both orientations.

A further test addresses T39, 4H2354-AA.
T39 chain: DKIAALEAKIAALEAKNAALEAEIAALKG
The note with it: mean of both orientations.

In a further test the target is T40, 4H1086-AA.
T40 chain: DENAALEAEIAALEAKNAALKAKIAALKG

The target of another test is T41, 4H678-AA.
T41 chain: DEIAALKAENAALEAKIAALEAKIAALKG
Particulars: mean of both orientations.

The target of a further test is T42, 4H342-AA.
T42 chain: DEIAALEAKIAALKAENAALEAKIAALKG
Particulars: mean of both orientations.

Another test addresses T43, 4H2466-AA.
T43 chain: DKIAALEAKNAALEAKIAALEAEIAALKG
The note with it: mean of both orientations.

Another test deals with T44, 4H335-AA.
T44 chain: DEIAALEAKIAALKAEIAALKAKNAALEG
The note with it: mean of both orientations.

In a further test the target is T45, 4H717-AA.
T45 chain: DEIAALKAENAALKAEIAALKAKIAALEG
The note with it: mean of both orientations.

The next test deals with T46, 4H3427-AA.
T46 chain: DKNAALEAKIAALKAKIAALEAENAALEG
Particulars: mean of both orientations.

A further test concerns the target T47, 4H2642-AA.
T47 chain: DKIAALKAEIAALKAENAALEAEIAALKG
Particulars: mean of both orientations.

A further test deals with T48, 4H2949-AA.
T48 chain: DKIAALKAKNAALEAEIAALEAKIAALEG
Particulars: mean of both orientations.

The next test has as its target T49, Core_NNIN-es_KEEK.
T49 chain: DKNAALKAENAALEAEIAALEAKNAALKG
Particulars: mean of both orientations.

B1: Core_NNNN-es_EEKE (peptide)
chain: DENAALEAENAALEAKNAALKAENAALEG
Molecule B1 gave an interaction score with Core_NNNN-es_KKEK of 0.00657.

B2: 4H1086-AA (peptide)
chain: DENAALEAEIAALEAKNAALKAKIAALKG
As to B2, the interaction score was -0.992 in the test with 4H317-AA; -0.938 with 4H1135-AA; -0.552 with 4H1324-AA; -0.479 in the test with 4H993-AA; -0.771 in the test with 4H605-AA; -0.949 in the test with 4H454-AA. The interaction score with 4H3844-AA is -0.082; with 4H122-AA, -0.74; with 4H3655-AA, -0.935; in the test with 4H1352-AA it was -0.965; in the test with 4H3112-AA, -1.57; with 4H1153-AA, -0.756. Besides, the interaction score with 4H2729-AA was 1.34; with 4H429-AA, 0.612; in the test with 4H2754-AA, 0.514; in the test with 4H2617-AA it was 0.841; in the test with 4H2575-AA, 0.522; with 4H2277-AA, -2.16. Besides, the interaction score was -1.37 with 4H780-AA; -1.02 in the test with 4H1867-AA; -0.902 with 4H566-AA; -0.327 with 4H794-AA; 1.78 with 4H2190-AA; 2.16 in the test with 4H3921-AA. Also, the interaction score was -0.495 in the test with 4H1552-AA; 2.25 with 4H2837-AA; -1.28 with 4H2505-AA; -1.62 with 4H1636-AA; -1.17 in the test with 4H234-AA; -1.8 with 4H906-AA. Also, the interaction score with 4H2165-AA was -1.24; with 4H2078-AA it was -1.42; with 4H881-AA it was 1.89; with 4H3627-AA, -0.932; with 4H3343-AA, -1.72; with 4H2944-AA, -1.29. The interaction score is 1.89 in the test with 4H2393-AA; -0.946 with 4H2354-AA; -1.1 with 4H1086-AA; -0.364 with 4H678-AA; 1.88 in the test with 4H342-AA; -1.65 with 4H2466-AA. The interaction score is -1.27 with 4H335-AA; -1.78 with 4H717-AA; -0.568 with 4H3427-AA; 1.79 with 4H2642-AA; 0.739 in the test with 4H2949-AA.

B3: Core_NNIN-es_EKKE (peptide)
chain: DENAALEAKNAALKAKIAALKAENAALEG
B3 returned an interaction score with Core_NNIN-es_KEEK of 1.39.
